{
  "source": "paper doi:10.1101/2020.09.10.281741",
  "key": {"[1]": {"molecular_target": "His6-HMW1ct (C-terminal region of the HMW1A adhesin of H. influenzae, non-glycosylated) (H. influenzae)", "test": "SPR"}, "[2]": {"molecular_target": "Glc-HMW1ct (glycosylated HMW1ct, mixture of 7,8,9,10-Glc glycoforms) (H. influenzae)", "test": "SPR"}},
  "data": [
    {"substance": "ApNGT-His6 (N-glycosyltransferase from Actinobacillus pleuropneumoniae) (from UniProt A3N2T3 1-620) (enzyme)", "values": [
      {"measurement": "Kd", "setting": "[1]", "value": 5.85, "unit": "µM"},
      {"measurement": "Kd", "setting": "[2]", "value": 9.81, "unit": "µM"}
    ]}
  ]
}
